B1: Protein phosphatase 1 regulatory subunit 15B (Homo sapiens), Q5SWA1 (parent)
chain: MEPGTGGSRKRLGPRAGFRFWPPFFPRRSQAGSSKFPTPLGPENSGNPTLLSSAQPETRVSYWTKLLSQLLAPLPGLLQKVLIWSQLFGGMFPTRWLDFAGVYSALRALKGREKPAAPTAQKSLSSLQLDSSDPSVTSPLDWLEEGIHWQYSPPDLKLELKAKGSALDPAAQAFLLEQQLWGVELLPSSLQSRLYSNRELGSSPSGPLNIQRIDNFSVVSYLLNPSYLDCFPRLEVSYQNSDGNSEVVGFQTLTPESSCLREDHCHPQPLSAELIPASWQGCPPLSTEGLPEIHHLRMKRLEFLQQASKGQDLPTPDQDNGYHSLEEEHSLLRMDPKHCRDNPTQFVPAAGDIPGNTQESTEEKIELLTTEVPLALEEESPSEGCPSSEIPMEKEPGEGRISVVDYSYLEGDLPISARPACSNKLIDYILGGASSDLETSSDPEGEDWDEEAEDDGFDSDSSLSDSDLEQDPEGLHLWNSFCSVDPYNPQNFTATIQTAARIVPEEPSDSEKDLSGKSDLENSSQSGSLPETPEHSSGEEDDWESSADEAESLKLWNSFCNSDDPYNPLNFKAPFQTSGENEKGCRDSKTPSESIVAISECHTLLSCKVQLLGSQESECPDSVQRDVLSGGRHTHVKRKKVTFLEEVTEYYISGDEDRKGPWEEFARDGCRFQKRIQETEDAIGYCLTFEHRERMFNRLQGTCFKGLNVLKQC

Variants of: B1
Conditions: with pp1g_human PPP1CC

Q: R658C was tested. Which “effect of a mutation on the interaction” value did it give?
A: decreasing interaction strength

Variants of: B1
Conditions: with pp1g_human PPP1CC
Remark: another data set of the same source

Q: For R658C, which “effect of a mutation on the interaction” value is on record?
A: disrupting interaction strength

Source: IntAct's records for PubMed 26307080
